Measurements published in US20250327097A1, “ORGANISMS PRODUCING LESS CROTONIC ACID” (Global Bioenergies, priority 2021, published 2025).
Numbering of substitutions follows the chain as printed. Numbers in names are those of the source.

B1: I283T-N285P-N287T-Q290E-S322T-N388M-K394R-C430A-L432F-L434W-S436N-dA463 (protein)
chain: MFLKSLREQINLLKRQGDLRIINRPVDSYLEAAAIIRRSTETKAPVPLMTNIKGYPGCSIVGGLAALSSNPEYPLSRVAMSLGLSTTASAQSIVQYLIDGLKKTPYLPVEIDSNSAPCKQNILRGEDASLAHFPIPQVHQHDGNRYVNTWGVFIVESPDGQWCNWSIQRVQYLNDRQMIALVFPSQHISDIWEEWVKIGKPMPYALVQGCEPIVPYIAGLPLLERNVNEAEYIGALYGKGIEVVKCETHDLRVPASSEVVIEGYFAITREGVEGPFGEFAGYTPPETSLEPILSITAISWQDDPIWPVVAEGKPVDEYHTCTGIGDAAAIQNVLLTANLPVSFVWVPLYSACHLMIVSINRHWRQTHPDLTSEQLTKKVGDVIHQTRMSIKLPRIVVLDDDVDPADTESLLWALATRIHPERKRYFYESAIFPWLNCYSEEERHNRKGKRVIIDALLPENHGAISSFDYAYPDDIKQRVLMHWETDFSHD
B2: I283T-P284D-N285M-N287T-S322T-N388M-K394R-C430A-L432F-L434W-S436N-G462T-A463P (protein)
chain: B1 chain with P284D, P285M, E290Q, G462T, A463P
B3: I283T-P284D-N285M-N287T-S322T-N388M-K394R-C430A-L432F-L434W-S436N-G462P-A463P-I464P (protein)
chain: B1 chain with P284D, P285M, E290Q, G462P, A463P, I464P
B4: V227Y-I283T-N285P-N287T-Q290E-S322T-N388M-K394R-C430A-L432F-L434W-S436N-dG462 (protein)
chain: B1 chain with V227Y
B5: I283T-N285P-N287T-Q290E-S322T-N388M-K394R-dR422-C430A-L432F-L434W-S436N-dG462 (protein)
chain: B1 chain
B6: I283T-P284D-i284aP-N287P-S322T-N388M-E421V-C430N-L432F-L434W-S436N-H461V-dG462-A463T (protein)
chain: B1 chain with P284D, P285N, T287P, E290Q, R394K, E421V, A430N, H461V, A463T
B7: I283T-P284D-N285M-N287T-S322T-N388M-K394R-C430A-L432F-L434W-S436N-C437M-G462P-A463P (protein)
chain: B1 chain with P284D, P285M, E290Q, C437M, G462P, A463P
B8: I283T-P284D-i284aP-N287P-S322T-N388M-E421V-C430N-L432F-L434W-S436N-dG462-A463T (protein)
chain: B1 chain with P284D, P285N, T287P, E290Q, R394K, E421V, A430N, A463T
B9: I283T-P284D-N285I-N287T-i287aS-S322T-N388M-K394R-C430A-L432F-L434W-S436N-G462P-A463P (protein)
chain: B1 chain with P284D, P285I, E290Q, G462P, A463P
B10: I283T-P284D-i284aP-N287P-S322T-N388M-E421V-R422F-C430N-L432F-L434W-S436N-H461T-dG462 (protein)
chain: B1 chain with P284D, P285N, T287P, E290Q, R394K, E421V, R422F, A430N, H461T
B11: I283T-P284D-N285M-N287T-L289H-S322T-N388M-K394R-C430A-L432F-L434W-S436N-G462P-A463P (protein)
chain: B1 chain with P284D, P285M, L289H, E290Q, G462P, A463P
B12: L223Y-I283T-N285P-N287T-Q290E-S322T-N388M-K394R-C430A-L432F-L434W-S436N-dG462 (protein)
chain: B1 chain with L223Y
B13: I283T-P284D-i284aP-N287P-S322T-N388M-E421V-C430N-L432F-L434W-S436N-H461T-dG462-A463T (protein)
chain: B1 chain with P284D, P285N, T287P, E290Q, R394K, E421V, A430N, H461T, A463T
B14: I283T-P284D-i284aP-N287P-S322T-N388M-E421V-R422F-C430N-L432F-L434W-S436N-H461T-dG462-A463T (protein)
chain: B1 chain with P284D, P285N, T287P, E290Q, R394K, E421V, R422F, A430N, H461T, A463T
B15: N287I-N388M-K394R-C430N-L432F-L434W-S436N (protein)
chain: B1 chain with T283I, P285N, T287I, E290Q, T322S, A430N
B16: P184S-I283T-N285P-N287T-Q290E-S322T-N388M-K394R-C430A-L432F-L434W-S436N-dG462 (protein)
chain: B1 chain with P184S
B17: I283T-P284D-i284aP-N287P-S322T-N388M-E421V-R422F-C430N-L432F-L434W-S436N-dG462-A463T (protein)
chain: B1 chain with P284D, P285N, T287P, E290Q, R394K, E421V, R422F, A430N, A463T
B18: I283T-P284D-i284aP-N287P-S322T-N388M-C430N-L432F-L434W-S436N-H461A-dG462-A463T (protein)
chain: B1 chain with P284D, P285N, T287P, E290Q, R394K, A430N, H461A, A463T
B19: N287K-N388M-K394R-C430N-L432F-L434W-S436N (protein)
chain: B1 chain with T283I, P285N, T287K, E290Q, T322S, A430N
B20: L223Y-I283T-N285P-N287T-Q290E-S322T-N388M-K394R-K423G-C430A-L432F-L434W-S436N-dG462 (protein)
chain: B1 chain with L223Y, K423G
B21: I283T-P284D-i284aP-N287P-S322T-N388M-C430N-L432F-L434W-S436N-dG462 (protein)
chain: B1 chain with P284D, P285N, T287P, E290Q, R394K, A430N
B22: E126K-H141Q-I283T-N285P-N287T-Q290E-S322T-N388M-K394R-C430A-L432F-L434W-S436N-dG462 (protein)
chain: B1 chain with E126K, H141Q
B23: I283T-P284D-i284aP-N287P-S322T-N388M-C430N-L432F-L434W-S436N-H461A-dG462 (protein)
chain: B1 chain with P284D, P285N, T287P, E290Q, R394K, A430N, H461A

Tested on: 3-methylcrotonic acid
Assay type: biochemical, Yersinia frederiksenii
Parameters: key: “+” representing a low increase in activity; “++++” representing a high increase in activity

Row | Molecule | Activity relative to WT
1 | B1 | ++++
2 | B2 | ++++
3 | B3 | ++++
4 | B4 | ++++
5 | B5 | ++++
6 | B6 | ++++
7 | B7 | ++++
8 | B8 | ++++
9 | B9 | ++++
10 | B10 | ++++
11 | B11 | ++++
12 | B12 | ++++
13 | B13 | ++++
14 | B14 | ++++
15 | B15 | +
16 | B16 | ++++
17 | B17 | ++++
18 | B18 | ++++
19 | B19 | +
20 | B20 | ++++
21 | B21 | ++++
22 | B22 | ++++
23 | B23 | ++++
